Data on 10 molecules can be found in patent US20230293647A1 (AUTOLUS, published 2023).

The labels stand for the following.
B1: 74653 (Fc fusion)
scFv-Fc: QVQLQQPGAELVKPGASVKVSCKASGYTFTNYWIHWVKQRPGQGLEWIGEINPGNGRTNYNGNFMNKATLTVDKSSNTAYMQLSSLTSEDSAVYHCARLDYWGQGTTLTVSSELVMTQSPASLSVATGKKVTIRCISSTDIDDDMNWYQQKAGKPPKLLISEGNIFSPGVPSRFSSSGNGTDFVFTVENTLSEDVADNYCLQSDNMPFTFGSGTKLGIK
B2: 74667 (Fc fusion)
scFv-Fc: QVQLVQSGAEVKKPGESLKISCKGSGYSFANHWIAWVRQMPGKGLEWMGIFNPDNSDTTYSPSFQGQVTFSADKSISIAYLHWSSLKASDTAIYYCARLALSDGWLHDFWGQGTLVTVSSEIVMTQSPLSLPVTLGQPASISCKSSQSLVDTNGNTYLIWFHQRPGQSPRRLIYQVSKRDSGVPDRFSGSGSGTDFTLKISRVEAEDVGVYFCMQGTYRPPTLGQGTKVEIK
B3: 74655 (Fc fusion)
scFv-Fc: QVQLVQSGAEVKKPGASVKVSCKASGYTFTTYGISWVRQAPGQGLEWMGWISAYNGNTNYAQKLQGRVTMTTDTSTSTAYMELRSLRSDDTAVYYCARDDLSDYGEWLGPDYWGQGTLVTVSSQPGLTQPPSASGTPGQRVTISCSGSRSNIGGNTVNWYQHVPGTAPKLLIYSNNQRPSGVPDRFSGSKSGTSASLAISGLRSEDEAEYYCATWEDSLSGYVFGPGTKVTVL
B4: 74649 (Fc fusion)
scFv-Fc: QAQLVESGGALVQPGRSLRLSCAASGFTFRNYAMHWVRQAPATGLQWLAVITSDGRNKFYADSVKGRFTISREDSKNTLYLQMDSLRGEDTAVYYCVTQRDNSRDYFPHYFHDMDVWGQGTTVAVSSDVVLTQSPLSLPVTLGQPASISCRSSQSLVYSDGDTYLNWFQQRPGQSPRRLIYQVSNRDSGVPDRFSGSGSGTDFTLKISRVEAEDVGVYYCMQGSHWPPTFGQGTKVEIK
B5: 74648 (Fc fusion)
scFv-Fc: EVQLVQSGGGVVQPGKSLRLSCAASGFAFSSYAMHWVRQAPGKGLEWVAVISYDGSNKYYADSVKGRFTISRDNSKNTLYLQMNSLRAEDTAVYYCARDRSYYLDYWGQGTLVTVSSETTLTQSPATLSLSPGERATLSCRASQSVRSNLAWYQQKPGQAPRPLIYDASTRATGIPDRFSGSGSGTDFTLTISRLEPEDFAVYYCQQRSNWPPTFGQGTKVEVK
B6: 74652 (Fc fusion)
scFv-Fc: QVQLLESGAELVKPGASVKVSCKASGYTFTSYWIHWVKQRPGQGLEWIGEINPSNGRTNYNGNFESKATLTVDKSSNTAYMHLSSLTYEDSAVYHCTRLDYWGQGTTLTVSSELVMTQSPASLSVITGKKVTIRCISNTDIDDDLNWSQLKAGEPPKLLISEGNIFSPGVPSRFSSSGNGTDFVFTIENTLSEDVANNYCFQSDNMPFTFGSGTKLEIK
B7: 74651 (Fc fusion)
scFv-Fc: EVQLEESGTVLARPGASVKMSCKASGYTFTTYRMHWIKQRPGQGLEWIGAIYPGNSDTTYNQKFKDKAKLTAVTSTSSAYMELSSLTNEDSAVYFCTREGIPQLLRTLDYWGQGTSVTVSSDILMTQSPSSLSASLGERVSLTCRASQEISGYLSWLQEKPDGTIKRLIYAASTLDSGVPKRFSGSRSGSDYSLTISSLESEDFADYYCLQYVSYPWTFGGGTKLEIK
B8: 74662 (Fc fusion)
scFv-Fc: EVQLVESGGGLVQPGGSLRLSCAASGFTFSGYPMHWVRQAPGKGLEWVAVISYDGSNKYYADSVKGRFTISRDNSKNTLYLQMNSLRAEDTAVYYCAKDGSPRTPSFDYWGQGTLVTVLEDIQMTQSPHSLSASVGDRVTITCRASQGISNYLAWYQQKPGKVPKLLIYAASTLQSGVPSRFSGSGSGTDFTLTISSLQPEDVGVYYCQQRFRTPVTFGQGTKLEIK
B9: 74650 (Fc fusion)
scFv-Fc: QVQLQQSGAEVKKPGSSVKVSCKASGGTFSSYTISWVRQAPGQGLEWMGGITPILGIANYAQKFQGRVTITTDESTSTAYMELSSLRSEDTAVYYCARDTVMGGMDVWGQGTTVTVSSSYELTQPPSVSVAPGKTARITCGGNNIGSKSVHWYQQKPGQAPVLVVYDDSDRPSGIPERFSGSNSGNTATLTISRVEAGDEADYYCQVWDSSSDYVFGTGTKVTVL
B10: dAb clone 9 fused to Fc (Fc fusion)
chain: QVQLQESGGGLVQAGDSLRLSCAASGRTSDTMTIGWFRQAPGKEREFVASINWSGSTTYYADSVNERFTISRDDAKNTVYLQMNSLKPEDTAVYYCAAKRGVWTIKSAAADFASWGQGTQVTVSS
notes: also called clone C9 fused to Fc

The target of the first experiment is T1, SARS-CoV-2 Spike protein, S1 subunit (recombinant) (SARS-CoV-2, UniProt P0DTC2 16-681). The experiment can be described thus: ELISA, scFv-Fc supernatant on coated SARS-CoV-2 S1; cut-off 3x background. A general note: In an ELISA, binding on a coated surface is turned into a signal by an enzyme label.
With B1, the binding result was “no binding (tested: approximately 10 µg/ml)”.

In the case of B2, the binding result is reported as “no binding (tested: approximately 10 µg/ml)”.

B3: the binding result is given as “no binding (tested: approximately 10 µg/ml)”.

On to B4, for which the binding result was “no binding (tested: approximately 10 µg/ml)”.

As to B5, the binding result is “no binding (tested: approximately 10 µg/ml)”.

As to B6, the binding result is recorded as “no binding (tested: approximately 10 µg/ml)”.

On to B7, for which the binding result is “no binding (tested: approximately 10 µg/ml)”.

As to B8, the binding result is “no binding (tested: approximately 10 µg/ml)”.

In the case of B9, the binding result is on record as “no binding (tested: approximately 10 µg/ml)”.

Another experiment deals with T1, SARS-CoV-2 Spike protein, S1 subunit …. Kind of experiment: ELISA, coated SARS-CoV-2 S1; x axis Log Dilution factor, no concentration.
For the molecule B10, the binding result was “binds”.

The target in another experiment is SARS-CoV S1 spike protein domain (recombinant) (SARS-CoV, UniProt P59594 14-667). The experiment can be described thus: ELISA on coated SARS-CoV S1.
For B10, the binding result is “no binding”.
